Data on 4 molecules can be found in US20110206696A1, “METHODS FOR INHIBITING BONE LOSS AND BONE METASTASIS” (THE WASHINGTON UNIVERSITY, priority 2010, published 2011).

In assay [1] the target is T1, CD47 (Homo sapiens, UniProt Q08722). The settings on record: cited from earlier work.
Assay [2] addresses SIRP (Homo sapiens, UniProt P78324). The settings on record: cited from earlier work.
The target in assay [3] is T1, CD47. Particulars: cited from earlier work. This is another data set of the same source.
For assay [4], the system named is CD47−/− macrophages. Put plainly: In vitro osteoclast differentiation, actin ring and bone resorption assays at high RANKL dose. Particulars: RANKL increased two-fold to 100 ng/ml; 50 ng/ml M-CSF. Format: cell-based, mouse. The protocol:
A. FACS analysis on WT and CD47-/- total bone marrow. WT and CD47-/- total bone marrow was stained for CD47 and F4/80. B. QPCR graph showing induction of CD47 transcript over the 7-day course of OC differentiation. C. Representative images of day 5 OCs cultured on bone and stained for TRAP (left panel) and cultured on bovine bone and stained for actin rings (right panel) in the presence of 50 ng/ml of M-CSF and 50 ng/ml or 100 ng/ml of RANKL are shown. D. Representative images of day 5 OCs cultured on bone and stained for resorption lacunae in the presence of 50 ng/ml of M-CSF and either 50 ng/ml of RANKL (left panel) and 100 ng/ml of RANKL (right panel) are shown. E. The pit (resorption lacunae) area was measured by histomorphometry. 50 ng/ml RANKL (p=0.04), 100 ng/ml RANKL (p=0.18). To investigate if the OC defect is cell-autonomous in CD474-/- mice, it was first determined if macrophages or OC precursors were decreased in CD47-/- bone marrow. WT and CD47-/- whole bone marrow were stained with CD47-FITC as control and F4/80 as a macrophage marker and carried out flow cytometry. No significant difference in F4/80+cells in CD47-/- bone marrow compared to WT control was observed (FIG. 3A). To test the differentiation of macrophages to OCs, we cultured whole bone marrow in M-CSF alone for 3 days to enrich for macrophages. […]

Assay [5] deals with CD47−/− mice. Put plainly: In vivo RANKL injections, serum CTX and calvarial TRAP staining. More on the design: species or system mouse. The settings on record: RANKL injected subperiostally into midline calvaria of 8-week old mice, once a day for 5 days. Here is the method:
A. 100 μg of RANKL was delivered subperiostally onto the midline calvaria of WT (n=5) and CD47−/− (n=5) mice. Serum CTX was measured before and after RANKL injections. WT vs. CD47−/− pre-RANKL p<0.01, WT vs. CD47−/− post-RANKL p=0.74, WT pre-RANKL vs. post-RANKL p=0.03, CD47−/− pre-RANKL vs. post-RANKL p<0.01. B. Representative images of TRAP stained calvarial sections. Arrows point to recruited OCs.
We measured serum CTX pre and post-RANKL injections in these mice. Pre-RANKL injection, CD47−/− mice had lower serum CTX as we have shown before (FIG. 4A). […] Furthermore, direct visualization of OC recruitment by TRAP staining on histological sections of calvarial bone in WT and CD47−/− mice confirmed the CTX results (FIG. 4B). We conclude that a high dose of RANKL rescued the cell-autonomous OC defect in CD47−/− mice.
CTX was measured from WT or CD47−/− mouse fasting serum by using a CTX ELISA system (Nordic Bioscience Diagnostics, Herlev, Denmark).
100 μg of RANKL in a volume of 40 μl was injected subperiostially in the midline calvaria in 8 week-old mice once a day for 5 consecutive days. On the sixth day, serum was collected, mice were sacrificed and the calvarial bone was isolated. TRAP staining was performed on fixed, decalcified and paraffin-embedded calvarial bone.

T1 sequence (Q08722 19-323, species assumed): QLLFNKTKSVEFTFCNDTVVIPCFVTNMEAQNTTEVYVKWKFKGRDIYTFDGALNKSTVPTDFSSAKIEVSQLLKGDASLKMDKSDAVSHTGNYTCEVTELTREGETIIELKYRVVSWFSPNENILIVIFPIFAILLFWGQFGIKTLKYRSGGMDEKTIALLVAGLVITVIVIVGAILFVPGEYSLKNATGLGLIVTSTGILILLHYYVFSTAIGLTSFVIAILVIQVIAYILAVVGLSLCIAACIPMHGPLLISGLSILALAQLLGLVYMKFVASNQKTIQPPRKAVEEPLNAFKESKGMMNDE
Chain of SIRP (P78324 31-504, species assumed): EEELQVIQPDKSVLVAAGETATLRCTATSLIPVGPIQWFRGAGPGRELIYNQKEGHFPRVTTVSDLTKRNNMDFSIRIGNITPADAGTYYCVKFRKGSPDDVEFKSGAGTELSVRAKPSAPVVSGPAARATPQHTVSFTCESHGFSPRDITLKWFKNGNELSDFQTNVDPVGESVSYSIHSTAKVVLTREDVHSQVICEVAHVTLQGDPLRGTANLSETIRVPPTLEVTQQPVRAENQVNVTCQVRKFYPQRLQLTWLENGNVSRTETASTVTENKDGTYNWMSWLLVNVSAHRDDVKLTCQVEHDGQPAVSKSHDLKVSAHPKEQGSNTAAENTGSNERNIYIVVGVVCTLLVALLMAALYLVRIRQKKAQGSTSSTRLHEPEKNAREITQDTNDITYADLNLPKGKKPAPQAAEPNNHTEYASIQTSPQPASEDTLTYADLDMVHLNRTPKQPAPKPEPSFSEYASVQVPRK

As to CERVIGTGWVRC, in assay [1], the “CD47 activity / signaling” value was “inhibit CD47 activity in vitro”. In addition, in assay [2], the “Binding to SIRP” value is “binds to SIRP”. In the case of IGWKDFTAYR, the “Binding to CD47” value in assay [3] was “found to bind CD47”. For “p7N3: CD47-binding peptide from the C-terminal module of TSP1, FIRWMYEGKK”, the “CD47 activity / signaling” value in assay [1] is “blocked (or disrupted) CD47 signaling”.

B1: RANKL: receptor activator of nuclear factor-KB ligand, cytokine for differentiation of macrophages into osteoclasts (protein, UniProt O14788 140-317, looked up)
Tumor necrosis factor ligand …: IRAEKAMVDGSWLDLAKRSKLEAQPFAHLTINATDIPSGSHKVSLSSWYHDRGWAKISNMTFSNGKLIVNQDGFYYLYANICFRHHETSGDLATEYLQLMVYVTKTSIKIPSSHTLMKGGSTKYWSGNSEFHFYSINVGGFFKLRSGEEISIEVSNPSLLDPDQDATYFGAFKVRDID
modifications: GST tag
As to B1, in assay [4], the “OC differentiation of CD47−/− cells” value is listed as “OC differentiation defect was largely rescued”. In addition, the “OC activation as measured by serum CTX, WT vs CD47−/− mice after RANKL” value in assay [5] is listed as “not significantly different”.
